Results from patent publication US20230193225A1, “NEW USES OF A MUTATED LACTONASE, AND COMPOSITIONS” (FONDATION MEDITERRANEE INFECTION, priority 2019, published 2023).
Changes are numbered by the printed parent chain. In names and notes the source's numbering stands. Entries after “also recorded” stand apart in the source; their conditions may differ.

Legend:
[1] = system: P. aeruginosa biofilms; assay: Enumeration of bacteria recovered from biofilms after antiseptic or bleach treatment; assay type: cell-based, Pseudomonas aeruginosa; settings: for bacteria recovered from the biofilm: 10 mM H2O2 for 1.5 hours
Protocol: (§1) Bacterial biofilms are formed by bacterial growth in a medium and conditions adapted to the bacteria studied in the presence or absence of the lactonase SsoPox-W263I of sequence SEQ ID NO: 2.
(§2) Bacteria are pre-cultured for 6 hours in oxygenated flasks under the conditions indicated in Table 1 and then MBEC plates are plated by diluting the pre-culture to 1:1000 in the presence or absence of SsoPox-W263I lactonase at 0.5 mg/mL. After 24 hours of growth, the bacterial biofilms formed on the spikes of the MBEC plate cover are rinsed by immersion for 5 minutes in a buffer solution (Table 1). The biofilms are then immersed in a buffer solution containing antimicrobial agents (disinfectants, bactericidal or bacteriostatic antibiotics, bacteriophages, biocides) for a period of time representative of the mechanism of action of the antimicrobial agent studied (1.5 h for antiseptics, 3 h for antibiotics, 4 h for phages). After immersion in the antimicrobial agents, the bacterial biofilms were rinsed for 5 minutes in a buffer solution and then incubated for 1 hour in a nutrient medium adapted to the bacteria studied and containing detergents to detach the biofilms (Table 1). After 1 hour of incubation, the bacteria detached from the biofilm and thus present in the wells of the MBEC plate are serially diluted and plated on suitable nutrient agar to perform bacterial counts and determine the number of bacteria that survived the combined treatment of the mutated SsoPox-W263I enzyme and the antimicrobial agent (FIG. 1). The MBEC is the minimum concentration of antimicrobial agent to eradicate the bacteria in the biofilm.

[2] = system: Pseudomonas aeruginosa UCBPP-PA14 biofilm; assay: MBEC (Minimal Biofilm Eradication Concentration) assay; assay type: cell-based; settings: for MBEC: P. aeruginosa UCBPP-PA14 biofilm; for factor of decrease of the concentration required to eliminate the biofilms in presence of SsoPox-W263I: P. aeruginosa biofilms, with vs without SsoPox-W263I
Protocol: (§3) The doses of antimicrobial agents required to eliminate bacterial biofilms are determined using the “MBEC (Minimal Biofilm Eradication Concentration) Assay TM” technique developed by Innovotech (Alberta, Canada) according to the supplier's data.
as §1, §2

[3] = system: Pseudomonas aeruginosa UCBPP-PA14 biofilm; assay: as above; assay type: cell-based; settings: control sample with inactive variant SsoPox-5A8
[4] = system: Chromobacterium violaceum ATCC-12472 biofilm; assay: as above; assay type: cell-based; settings: C. violaceum ATCC-12472 biofilm
Protocol: as §3, §1, §2

[5] = system: CRISPR-Cas system genes in Chromobacterium violaceum CV12472; assay: Gene expression of the CRISPR-Cas system (RT-PCR); assay type: cell-based; settings: C. violaceum CV12472; vs inactive SsoPox-5A8
Protocol: (§4) FIG. 3: Expression changes of the CRISPR-Cas system. Expression of the CRISPR-Cas system genes casl, cas3, csy1, csy2, csy3 and csy4 was measured for the P. aeruginosa model strain PA14 as well as for clinical isolates from diabetic foot infections (All, B10, C5, C11, D10 and F3) and for the marine bacterium Chromobacterium violaceum CV12472. […] Error bars represent variations for 2 technical duplicates of 2 biological replicates. *p-values<0.05, *p-values<0.01, ***p-values<0.001 by Student's t-test.
(§5) After 16 hours of culture (stationary phase), the bacteria were recovered by centrifugation.
RNAs were extracted and purified with the PureLink® RNA mini kit (ThermoFisher) according to the supplier's recommendations and then treated with the TURBO DNA-free™ kit (ThermoFisher) to remove genomic DNA contamination. Samples were checked for quality by 1.5% agarose gel migration and the amount of nucleic acid was measured with a NanoDrop 2000 spectrophotometer (Thermo Scientific) at OD260 nm. […] RT-PCR was then performed using the LuminoCt® SYBR® Green qPCR ReadyMix™ kit and a CFX thermocycler (Bio-Rad) and specific primer pairs. […] Sample fluorescence is measured at the end of each cycle and denaturation curves were analysed with CFX Manager™ software (Bio-Rad). […]

[6] = system: CRISPR-Cas system genes cas1, cas3, csy1, csy2, csy3 and csy4 in P. aeruginosa PA14 and clinical isolates; assay: Gene expression of the CRISPR-Cas system (RT-PCR); assay type: cell-based, Pseudomonas aeruginosa; settings: vs inactive SsoPox-5A8
Protocol: as §4, §5
RNAs were extracted and purified with the PureLink® RNA mini kit (ThermoFisher) according to the supplier's recommendations and then treated with the TURBO DNA-free™ kit (ThermoFisher) to remove genomic DNA contamination. Samples were checked for quality by 1.5% agarose gel migration and the amount of nucleic acid was measured with a NanoDrop 2000 spectrophotometer (Thermo Scientific) at OD260 nm. Complementary DNAs (cDNAs) were synthesised using the TaqMan® Reverse Transcription Reagents kit (ThermoFisher) according to the manufacturer's recommendations. RT-PCR was then performed using the LuminoCt® SYBR® Green qPCR ReadyMix™ kit and a CFX thermocycler (Bio-Rad) and specific primer pairs. PCR amplification was performed with the following method: Denaturation for 5 minutes at 94° C., followed by 29 cycles of [1 minute at 94° C., 1 minute at 55° C., 30 seconds at 72° C.] for amplification, then a final elongation step for 7 minutes at 72° C. Sample fluorescence is measured at the end of each cycle and denaturation curves were analysed with CFX Manager™ software (Bio-Rad). Gene expression was normalised by expression of a 5S RNA housekeeping gene.

[7] = system: Pseudomonas aeruginosa PA14; assay: Susceptibility to Intesti phage cocktail; assay type: cell-based; settings: enzyme 0.5 mg/mL, phage cocktail 0 to 50% (vol/vol)
Protocol: FIG. 2: Increased susceptibility of Pseudomonas aeruginosa PA14 to Intesti phage cocktail.
as §2
The Intesti phage cocktail consists of a mixture of sterile filtrates of phages directed against Shigella flexneri (serovariants 1, 2, 3, 4, 6), Shigellasi, Proteus vulgaris, Proteus mirabilis, Enterococcus, Staphylococcus, Pseudomonas aeruginosa and excipients such as 8-hydroxyquinoline sulfate monohydrate at 0.0001 g/ml (estimated content) and is marketed by Intesti-bacteriophage, Microgen, Russia

Molecule: OO [H2O2]
- bacteria recovered from the biofilm ([1]; without the lactonase): 104-105 bacterial cells
- MBEC ([2]; with SsoPox W263I 0.5 mg/mL): 10 mM
- MBEC ([2]; without SsoPox W263I): 100 mM
- factor of decrease of the concentration required to eliminate the biofilms in presence of SsoPox-W263I [2]: 10
- antiseptic required to completely eradicate the biofilm [3]: 100 mM

Molecule: CN(C)S(=O)(=O)N(SC(F)(Cl)Cl)c1ccccc1 [Preventol A4S, Dichlofluanide]
- MBEC ([4]; with SsoPox W263I 0.5 mg/mL): >10 µM
- MBEC ([4]; without SsoPox W263I): <200 µM

Molecule: NC[C@H]1O[C@H](O[C@H]2[C@H](O)[C@@H](O[C@H]3O[C@H](CO)[C@@H](O)[C@H](N)[C@H]3O)[C@H](N)C[C@@H]2N)[C@H](N)C[C@@H]1O [Tobramycin]
- MBEC ([2]; with SsoPox W263I 0.5 mg/mL): 1 µg/mL
- MBEC ([2]; without SsoPox W263I): 10 µg/mL
- factor of decrease of the concentration required to eliminate the biofilms in presence of SsoPox-W263I [2]: 10

Molecule: Gentamicin
- MBEC ([2]; with SsoPox W263I 0.5 mg/mL): 2 µg/mL
- MBEC ([2]; without SsoPox W263I): 20 µg/mL
- factor of decrease of the concentration required to eliminate the biofilms in presence of SsoPox-W263I [2]: 10

B1: SsoPox-W263I: mutated hyperthermophilic lactonase of Sulfolobus solfataricus (SsoPox), tryptophan at position 263 substituted by isoleucine, SEQ ID NO: 2 (protein, listed as Sulfolobus solfataricus)
chain: MRIPLVGKDSIESKDIGFTLIHEHLRVFSEAVRQQWPHLYNEDEEFRNAVNEVKRAMQFGVKTIVDPTVMGLGRDIRFMEKVVKATGINLVAGTGIYIYIDLPFYFLNRSIDEIADLFIHDIKEGIQGTLNKAGFVKIAADEPGITKDVEKVIRAAAIANKETKVPIITHSNAHNNTGLEQQRILTEEGVDPGKILIGHLGDTDNIDYIKKIADKGSFIGLDRYGLDLFLPVDKRNETTLRLIKDGYSDKIMISHDYCCTIDIGTAKPEYKPKLAPRWSITLIFEDTIPFLKRNGVNEEVIATIFKENPKKFFS
- decrease in number of bacteria recovered from biofilms ([1]; 0.7 mM NaOCl and SsoPox-W263I, compared to NaOCl alone): 2 Log
- bacteria recovered from the biofilm ([1]; biofilm formed with SsoPox-W263I): no bacteria are recovered; also recorded: significantly reduces
- number of bacteria recovered from the biofilm, combination vs either agent alone ([1]; sodium hypochlorite in combination with W263I mutated lactonase): significantly reduces
- number of bacteria recovered from biofilms ([1]; without NaOCl treatment, with vs without W263I mutated lactonase): same number of bacteria
- number of bacteria recovered from biofilms ([1]; without antiseptic treatment, with vs without SsoPox-W263I): same number of bacteria
- expression of the cas3 and csy2-4 genes [5]: significantly reduced
- expression of CRISPR-Cas genes ([6]; P. aeruginosa PA14): completely abolished
- expression of the csy1-4 genes ([6]; clinical isolate A11): significantly reduced
- factor of decrease of CRISPR-Cas gene expression ([6]; clinical isolate B10): 5.5
- factor of decrease of CRISPR-Cas gene expression ([6]; clinical isolate C11): 8
- expression of the csy1-4 genes ([6]; clinical isolate D10): significantly reduced
- factor of increase of CRISPR-Cas gene expression, on average ([6]; clinical isolate F3): 1.7
- sensitivity of bacteria to Intesti phage cocktail (number of bacteria counted) [7]: more sensitive
- sensitivity of bacteria to Intesti phage cocktail (number of bacteria counted) ([7]; listed as W263I mutated lactonase): satisfactory results

B2: SsoPox-5A8: inactive variant of SsoPox (V27G/P67Q/L72C/Y97S/Y99A/T177D/R223L/L226Q/L228M/W263H) (protein, UniProt Q97VT7 1-314, looked up, variant V27G P67Q L72C Y97S Y99A T177D R223L L226Q L228M W263H)
Aryldialkylphosphatase: B1 chain with V27G, P67Q, L72C, Y97S, Y99A, T177D, R223L, L226Q, L228M, I263H
- sensitivity of bacteria to Intesti phage cocktail (number of bacteria counted) [7]: little impacted
